Consider 32 variants from the RNAGym collection of RNA variant scans (doi:10.7554/elife.80360).

The chains are these.
B1: HDV Ribozyme (parent)
chain: GGCCGGCAUGGUCCCAGCCUCCUCGCUGGCGCCGGCUGGGCAACAUUCCGAGGGGACCGUCCCCUCGGUAAUGGCGAAUGGGACCCA

The variants in the data set derive from B1. As to the kind of experiment: self-cleavage, relative activity (ratio to wild type); higher = more cleavage; co-transcriptional.
As to AGCCGGCAUGGUCCCAGCCUCCUCGCUGGCGCCGGCUGGGCAACAUUCCGAGGGGACCGUCCCCUCGGUAAUGGCGACUGGGACCCA [G1A A78C], the self-cleavage is 0.0627.

AGCCGGCAUGGUCCCAGCCUCCUCGCUGGCGCCGGCUGGGCAACAUUCCGAGGAGACCGUCCCCUCGGUAAUGGCGAAUGGGACCCA [G1A G54A]: the self-cleavage is 0.172. On to AGCCGGCAUGGUCCCAGCCUCCUCGCUGGCGCCGGCUGGGCAACAUUCCGAGGCGACCGUCCCCUCGGUAAUGGCGAAUGGGACCCA [G1A G54C], for which the self-cleavage was determined as 0.364. Turning to AGCCGGCAUGGUCCCAGCCUCCUCGCUGGCGCCGGCUGGGCAACAUUCCGAGGUGACCGUCCCCUCGGUAAUGGCGAAUGGGACCCA [G1A G54U], the self-cleavage came to 0.0475. For AGCCGGCAGGGUCCCAGCCUCCUCGCUGGCGCCGGCUGGGCAACAUUCCGAGGGGACCGUCCCCUCGGUAAUGGCGAAUGGGACCCA [G1A U9G] the value was 0.302; for AGCCGGCAAGGUCCCAGCCUCCUCGCUGGCGCCGGCUGGGCAACAUUCCGAGGGGACCGUCCCCUCGGUAAUGGCGAAUGGGACCCA [G1A U9A], 0.138; for AGCCGGCACGGUCCCAGCCUCCUCGCUGGCGCCGGCUGGGCAACAUUCCGAGGGGACCGUCCCCUCGGUAAUGGCGAAUGGGACCCA [G1A U9C], 0.369. Then AGCCGGAAUGGUCCCAGCCUCCUCGCUGGCGCCGGCUGGGCAACAUUCCGAGGGGACCGUCCCCUCGGUAAUGGCGAAUGGGACCCA [G1A C7A], with 0.191. Regarding AGCCGACAUGGUCCCAGCCUCCUCGCUGGCGCCGGCUGGGCAACAUUCCGAGGGGACCGUCCCCUCGGUAAUGGCGAAUGGGACCCA [G1A G6A], the self-cleavage was found to be 0.437. Turning to AGCCGGCAUGGUCCCAGCCUCCUCGCUGGCGCCGGCUGGGCAACAUUCCGAGGGGACCGUCCCCUCGGUAAUGGCGAAUGGGACCCU [G1A A87U], the self-cleavage turned out to be 0.157. For the variant AGCCGGCAUGGUCCCAGCCUCCUCGCUGGCGCCGGCUGGGCAACAUUCCGAGGGGACCGUCCCCUCGGUAAUGGCGAAUGGGACCCC [G1A A87C], the self-cleavage was determined as 0.121. For the variant AGCCGGCAUGGUCCCAGCCUCCUCCCUGGCGCCGGCUGGGCAACAUUCCGAGGGGACCGUCCCCUCGGUAAUGGCGAAUGGGACCCA [G1A G25C], the self-cleavage was found to be 0. On to AGCCGGCAUGGUCCCAGCCUCCUCGCUGGCGCCGGCUGGGCAACAUUCCGAGGGGAUCGUCCCCUCGGUAAUGGCGAAUGGGACCCA [G1A C57U], for which the self-cleavage was found to be 0. Consider AGCCGGCAUGGUCCCAGCCUCCUCGCUGGCGCCGGCUGGGGAACAUUCCGAGGGGACCGUCCCCUCGGUAAUGGCGAAUGGGACCCA [G1A C41G], for which the self-cleavage came out at 0.

In the case of AGCCGGCAUGGUCCCAGCCUCCUCGCUGGCGCCGGCUGGGCAACAUUCCGAGGGUACCGUCCCCUCGGUAAUGGCGAAUGGGACCCA [G1A G55U], the self-cleavage worked out at 0.309. For the variant AGCCGGCAUGGUCCCAGCCUCCUCGCUGGCGCGGGCUGGGCAACAUUCCGAGGGGACCGUCCCCUCGGUAAUGGCGAAUGGGACCCA [G1A C33G], the self-cleavage is 0.148. On to AGCCGGCAUGGUCCCAGCCUCCUCGCUGGCGCAGGCUGGGCAACAUUCCGAGGGGACCGUCCCCUCGGUAAUGGCGAAUGGGACCCA [G1A C33A], for which the self-cleavage was 0.0554. Regarding AGCCGGCAUGGUCCCAGCCUCCUCGCGGGCGCCGGCUGGGCAACAUUCCGAGGGGACCGUCCCCUCGGUAAUGGCGAAUGGGACCCA [G1A U27G], the self-cleavage came out at 0. For AGCCGGCAUGGUCCCAGCCUCCUCGCUGGCGCCGGCUGGGCAACAUUCCGUGGGGACCGUCCCCUCGGUAAUGGCGAAUGGGACCCA [G1A A51U] the value was 0; for AGCCGGCUUGGUCCCAGCCUCCUCGCUGGCGCCGGCUGGGCAACAUUCCGAGGGGACCGUCCCCUCGGUAAUGGCGAAUGGGACCCA [G1A A8U], 0. For AGCCGGCAUGGUCCCAGCCUCCUCGCUGGCGCCGGCUGGGCAACAUUCCGAGGGGACCGGCCCCUCGGUAAUGGCGAAUGGGACCCA [G1A U60G] the value was 0.302.

Turning to AGCCGGCAUGGUCCCACCCUCCUCGCUGGCGCCGGCUGGGCAACAUUCCGAGGGGACCGUCCCCUCGGUAAUGGCGAAUGGGACCCA [G1A G17C], the self-cleavage was found to be 0.107.

Regarding AGCCGGCAUGGUCCCAGCCUCCUCGCUGGCGCCGGCUGGGCAACAUUCCGAGGGGACCGUCCCCUCGGUAAUGGCGCAUGGGACCCA [G1A A77C], the self-cleavage turned out to be 0.0405. In the case of AGCCGGCAUGGUCCCGGCCUCCUCGCUGGCGCCGGCUGGGCAACAUUCCGAGGGGACCGUCCCCUCGGUAAUGGCGAAUGGGACCCA [G1A A16G], the self-cleavage came to 0.302.

As for AGCCGGCAUGGUCCCAGCCUCCUCGCUGGCGCCGGCUGGGCAACAUUCCGAGGGGACCGUCCCCUCGGUGAUGGCGAAUGGGACCCA [G1A A70G], the self-cleavage was determined as 0.214. As for AGCCGGCAUGGUCCCAGCCUCCGCGCUGGCGCCGGCUGGGCAACAUUCCGAGGGGACCGUCCCCUCGGUAAUGGCGAAUGGGACCCA [G1A U23G], the self-cleavage was 0. For the variant AGCCGGCAUGGUCCCAGCCUCCUCGCUGGCGCCGGCUGAGCAACAUUCCGAGGGGACCGUCCCCUCGGUAAUGGCGAAUGGGACCCA [G1A G39A], the self-cleavage turned out to be 0.141.

For the variant AGCCGGCAUGGUCCCAGCCUCCUCGCUGGCGCCGGCUGGGCAACAUUCAGAGGGGACCGUCCCCUCGGUAAUGGCGAAUGGGACCCA [G1A C49A], the self-cleavage is 0.0923. Consider AGCCGGCAUGGUCCCAGCCUCCUCGCUGGCGCCGGCUGGGCAACAUUCGGAGGGGACCGUCCCCUCGGUAAUGGCGAAUGGGACCCA [G1A C49G], for which the self-cleavage came to 0.166. As for AGCCGGCAUGGUCCCAGCCUCCUCGCUGGCGCCGGUUGGGCAACAUUCCGAGGGGACCGUCCCCUCGGUAAUGGCGAAUGGGACCCA [G1A C36U], the self-cleavage amounted to 0.244. For AGCCGGCAUGGUCGCAGCCUCCUCGCUGGCGCCGGCUGGGCAACAUUCCGAGGGGACCGUCCCCUCGGUAAUGGCGAAUGGGACCCA [G1A C14G] the value was 0.0665; for AGCCGGCAUGGUCCCAGCCUCCUCGCUGGCGCCGGCUGGGCAAUAUUCCGAGGGGACCGUCCCCUCGGUAAUGGCGAAUGGGACCCA [G1A C44U], 0.0898.
